Test results published in patent publication US10464978B2, “Peptides and combination of peptides for use in immunotherapy against ovarian cancer and other cancers” (immatics biotechnologies GmbH, priority 2015, dated 2019).

Biological target: HLA-A*02:01 (Homo sapiens, UniProt P04439, D140Y/D185E/D98H/E176V/E277Q/G131W/G231S/I119V/I121R/I166T/I218V/L300P/L318F/N151K/N90K/P208A/P217A/Q86G/Q94H/R138H/R169H/T345S)
Assay: MHC binding assay: UV-ligand exchange with beta2m ELISA (peptide exchange yield)
Conditions: binding to HLA-A*02:01
Excerpt: Candidate peptides for T cell based therapies according to the present invention were further tested for their MHC binding capacity (affinity). The individual peptide-MHC complexes were produced by UV-ligand exchange, where a UV-sensitive peptide is cleaved upon UV-irradiation, and exchanged with the peptide of interest as analyzed. Only peptide candidates that can effectively bind and stabilize the peptide-receptive MHC molecules prevent dissociation of the MHC complexes. To determine the yield of the exchange reaction, an ELISA was performed based on the detection of the light chain ([…]) of stabilized MHC complexes. The assay was performed as generally described in Rodenko et al. (Rodenko et al., 2006).
96 well MAXISorp plates (NUNC) were coated over night with 2 ug/ml streptavidin in PBS at room temperature, washed 4× and blocked for 1 h at 37° C. in 2% BSA containing blocking buffer. […] Peptide-MHC monomers of the UV-exchange reaction were diluted 100 fold in blocking buffer. Samples were incubated for 1h at 37° C., washed four times, incubated with 2 ug/ml HRP conjugated anti-β2m for 1h at 37° C., washed again and detected with TMB solution that is stopped with […]. Absorption was measured at 450 nm. Candidate peptides that show a high exchange yield (preferably higher than 50%, most preferred higher than 75%) are generally preferred for a generation and production of antibodies or fragments thereof, and/or T cell receptors or fragments thereof, as they show sufficient avidity to the MHC molecules and prevent dissociation of the MHC complexes.

Substance	Peptide exchange (MHC class I binding score, peptide exchange yield)
350 (ALLDVTHSELTV; listed as Homo sapiens) [compound 350]	“+++” (≥50 = +++)
616 (VLIDEVESL; listed as Homo sapiens) [compound 616]	“+++” (≥50 = +++)
273 (NLFQSVREV; listed as Homo sapiens) [compound 273]	“++” (≥20% = ++)
35 (KINDTIYEV; listed as Homo sapiens) [compound 35]	“+++” (≥50 = +++)
125 (VQIHQVAQV; listed as Homo sapiens) [compound 125]	“+++” (≥50 = +++)
615 (VLPPDTDPA; listed as Homo sapiens) [compound 615]	“++” (≥20% = ++)
545 (LLADLLHNV; listed as Homo sapiens) [compound 545]	“+++” (≥50 = +++)
599 (YLLNDASLISV; listed as Homo sapiens) [compound 599]	“+++” (≥50 = +++)
15 (VLLTFKIFL; listed as Homo sapiens) [compound 15]	“++” (≥20% = ++)
270 (LLLDEEGTFSL; listed as Homo sapiens) [compound 270]	“++” (≥20% = ++)
325 (FIMPATVADATAV; listed as Homo sapiens) [compound 325]	“+++” (≥50 = +++)
230 (ILVDWLVEV; listed as Homo sapiens) [compound 230]	“+” (≥10% = +)
530 (VMYADIGGMDI; listed as Homo sapiens) [compound 530]	“+++” (≥50 = +++)
104 (STMEQNFLL; listed as Homo sapiens) [compound 104]	“++++” (≥75% = ++++)
197 (ALGPEGGRV; listed as Homo sapiens) [compound 197]	“++” (≥20% = ++)
223 (ALLENIALYL; listed as Homo sapiens) [compound 223]	“+++” (≥50 = +++)
332 (YLISELEAA; listed as Homo sapiens) [compound 332]	“+++” (≥50 = +++)
153 (FLIANVLYL; listed as Homo sapiens) [compound 153]	“+” (≥10% = +)
322 (TLMTSLPAL; listed as Homo sapiens) [compound 322]	“+++” (≥50 = +++)
617 (ALMYESEKVGV; listed as Homo sapiens) [compound 617]	“+++” (≥50 = +++)
34 (ILVEADSLWVV; listed as Homo sapiens) [compound 34]	“+++” (≥50 = +++)

Substance	Peptide exchange (MHC class I binding score, peptide exchange yield)
25 (FLPDEPYIKV; listed as Homo sapiens) [compound 25]	“+++” (≥50 = +++)
598 (FLFPHSVLV; listed as Homo sapiens) [compound 598]	“+++” (≥50 = +++)
324 (FLYDEIEAEV; listed as Homo sapiens) [compound 324]	“+++” (≥50 = +++)
612 (YLYNEGLSV; listed as Homo sapiens) [compound 612]	“+++” (≥50 = +++)
233 (VLSETLYEL; listed as Homo sapiens) [compound 233]	“++” (≥20% = ++)
447 (QLVPALAKV; listed as Homo sapiens) [compound 447]	“++” (≥20% = ++)
374 (FLLQQHLISA; listed as Homo sapiens) [compound 374]	“++” (≥20% = ++)
269 (RVLEVGALQAV; listed as Homo sapiens) [compound 269]	“++” (≥20% = ++)
219 (KLSDIGITV; listed as Homo sapiens) [compound 219]	“+++” (≥50 = +++)
296 (FMEGAIIYV; listed as Homo sapiens) [compound 296]	“+++” (≥50 = +++)
385 (SLLEQGLVEA; listed as Homo sapiens) [compound 385]	“++” (≥20% = ++)
225 (SLLKVLPAL; listed as Homo sapiens) [compound 225]	“+++” (≥50 = +++)
502 (RLLAQVPGL; listed as Homo sapiens) [compound 502]	“+++” (≥50 = +++)
409 (LLDAMNYHL; listed as Homo sapiens) [compound 409]	“++” (≥20% = ++)
453 (KLLEATSAV; listed as Homo sapiens) [compound 453]	“++” (≥20% = ++)
569 (KLVDRTWTL; listed as Homo sapiens) [compound 569]	“+++” (≥50 = +++)
591 (SMAELDIKL; listed as Homo sapiens) [compound 591]	“+++” (≥50 = +++)
309 (GLFDGVPTTA; listed as Homo sapiens) [compound 309]	“+++” (≥50 = +++)
210 (LLLNAVLTV; listed as Homo sapiens) [compound 210]	“++” (≥20% = ++)
308 (SQYSGQLHEV; listed as Homo sapiens) [compound 308]	“+++” (≥50 = +++)
538 (LLLAHIIAL; listed as Homo sapiens) [compound 538]	“++” (≥20% = ++)

Substance	Peptide exchange (MHC class I binding score, peptide exchange yield)
442 (GLLGGGGVLGV; listed as Homo sapiens) [compound 442]	“+++” (≥50 = +++)
39 (SVAPNLPAV; listed as Homo sapiens) [compound 39]	“+++” (≥50 = +++)
280 (VLPDPEVLEAV; listed as Homo sapiens) [compound 280]	“+++” (≥50 = +++)
5 (HLTEVYPEL; listed as Homo sapiens) [compound 5]	“+++” (≥50 = +++)
556 (FLTDLEDLTL; listed as Homo sapiens) [compound 556]	“+++” (≥50 = +++)
158 (KLFDVDEDGYI; listed as Homo sapiens) [compound 158]	“+++” (≥50 = +++)
111 (YVWGFYPAEV; listed as Homo sapiens) [compound 111]	“+++” (≥50 = +++)
398 (KLLEEDGTIITL; listed as Homo sapiens) [compound 398]	“++” (≥20% = ++)
119 (FLYIGDIVSL; listed as Homo sapiens) [compound 119]	“++++” (≥75% = ++++)
635 (SLDSTLHAV; listed as Homo sapiens) [compound 635]	“+++” (≥50 = +++)
69 (FQLDPSSGVLVTV; listed as Homo sapiens) [compound 69]	“+++” (≥50 = +++)
479 (SLFGNSGILENV; listed as Homo sapiens) [compound 479]	“+++” (≥50 = +++)
209 (KLIESKHEV; listed as Homo sapiens) [compound 209]	“++” (≥20% = ++)
202 (ALLDQQGSRWTL; listed as Homo sapiens) [compound 202]	“+++” (≥50 = +++)
257 (SIFSAFLSV; listed as Homo sapiens) [compound 257]	“+++” (≥50 = +++)
375 (SLTETIEGV; listed as Homo sapiens) [compound 375]	“++” (≥20% = ++)
372 (TMLLNIPLV; listed as Homo sapiens) [compound 372]	“++” (≥20% = ++)
241 (SLVEVNPAYSV; listed as Homo sapiens) [compound 241]	“+++” (≥50 = +++)
282 (LLADVVPTT; listed as Homo sapiens) [compound 282]	“+++” (≥50 = +++)
272 (ALGNTVPAV; listed as Homo sapiens) [compound 272]	“+++” (≥50 = +++)
